This is an account of results in patent US20250042994A1 (HAINAN SIMCERE ZAIMING PHARMACEUTICAL, published 2025).

One assay has as its target T1, murine CD19 protein (murine, UniProt P25918 17-287, limits assumed).
T1 construct: bought protein; also called commercial murine CD19
T1 sequence (looked up): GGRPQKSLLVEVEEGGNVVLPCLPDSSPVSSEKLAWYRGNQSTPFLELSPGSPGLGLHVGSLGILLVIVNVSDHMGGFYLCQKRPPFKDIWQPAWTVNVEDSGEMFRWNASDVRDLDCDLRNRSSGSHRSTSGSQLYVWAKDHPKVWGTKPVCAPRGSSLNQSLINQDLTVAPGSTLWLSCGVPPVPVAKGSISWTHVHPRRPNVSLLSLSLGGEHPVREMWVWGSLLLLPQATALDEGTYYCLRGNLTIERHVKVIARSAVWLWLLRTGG
Description: ELISA, coated murine CD19. Put shortly: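 Plates coated overnight at 4° C with recombinant murine or monkey CD19 and blocked with 2% BSA. Chimeric antibodies, serially diluted from 100 nM, bound for 2 h at 37° C. TMB development for 10 min with OD450 read-out.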
For orientation: An ELISA detects its analyte on a solid surface through an enzyme-linked reagent.

Assay [1] addresses T2, Human CD19-his protein (human, UniProt P15391 20-291).
T2 construct: bought protein; also called human CD19 protein; recombinant human CD19-His; not shown: His tag
T2 sequence (looked up): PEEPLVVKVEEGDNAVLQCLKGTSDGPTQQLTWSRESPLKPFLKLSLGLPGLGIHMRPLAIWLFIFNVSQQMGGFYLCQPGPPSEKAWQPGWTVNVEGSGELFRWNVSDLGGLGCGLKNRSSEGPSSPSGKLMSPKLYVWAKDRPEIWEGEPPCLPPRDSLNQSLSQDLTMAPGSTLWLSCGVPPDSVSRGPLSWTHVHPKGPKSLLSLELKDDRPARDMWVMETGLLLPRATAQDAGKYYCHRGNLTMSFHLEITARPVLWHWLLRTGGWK
Description: ELISA, antibody at 10 nM.

For assay [2], the target named is T2, Human CD19-his protein. Description: ELISA, antibody at 0.001 nM.
Assay [3] addresses T2, Human CD19-his protein. Description: ELISA, antibody at 0.01 nM.
The target of assay [4] is T2, Human CD19-his protein. Description: ELISA on coated human CD19-His.
Assay [5] addresses T2, Human CD19-his protein. Put plainly: ELISA, antibody at 1.00 nM.
Assay [6] addresses T3, human CD19 exon1-3-his protein (human, UniProt P15391 20-186, limits assumed).
T3 construct: made in HEK293E cells; also called membrane-distal end; not shown: His tag
T3 sequence (looked up): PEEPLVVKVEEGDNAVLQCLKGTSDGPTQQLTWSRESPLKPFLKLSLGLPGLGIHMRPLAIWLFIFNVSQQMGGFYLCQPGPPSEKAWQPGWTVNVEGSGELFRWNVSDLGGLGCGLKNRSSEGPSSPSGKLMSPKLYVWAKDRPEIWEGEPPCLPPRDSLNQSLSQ
Put plainly: ELISA, coated at 2 ug/mL.

Assay [7] has as its target T2, Human CD19-his protein. Put plainly: ELISA, antibody at 0.10 nM.
Assay [8] has as its target T2, Human CD19-his protein. Description: ELISA, antibody at 100 nM.
Assay [9] concerns the target T2, Human CD19-his protein. Description: ELISA, antibody at 0.0001 nM.

A word on the EC50 (read off the curve): it is the concentration needed to bring the measured effect to its halfway point. A lower EC50 (read off the curve) goes with a more potent agent.

B1: F3.113.16 (antibody, human IgG1, V domains shown)
VH: QVQLQQPGAELVKPGASVKLSCKASGYTFTNYWMQWVKQRPGQGLEWIGEIDPSDSYINYNQKFKGKATLTADTSSSTAYMQLSSLTYEDSAVYYCARPVTVPWYFDVWGTGTTVTVSS
VL: EIVLTQSPTTMAASPGEKITITCSATSSISSNYLHWYQQKPGFSPKLLIYRTSNLASGVPARFSGSGSGTSYSLTIGTMEAEDVATYYCQQGSAIPRIFTFGSGTKLEIK
notes: human-murine chimeric antibody, human IgG1
For the molecule B1, the binding result (with murine CD19 protein; in assay [6]) was “no binding” each time. In addition, the OD450 with Human CD19-his protein [1] amounted to 0.34; with Human CD19-his protein [2] it was 0.05; in the assay with Human CD19-his protein [3], 0.06; with Human CD19-his protein [5] it was 0.26; in the assay with Human CD19-his protein [7], 0.11; with Human CD19-his protein [8], 0.38. Further, the OD450 in the assay with Human CD19-his protein [9] is 0.05. In the assay with Human CD19-his protein [4], the 50% effective concentration (EC50 (read off the curve)) is approximately 0.5 nM.

B2: F3.121.4 (antibody, human IgG1, V domains shown)
VH: QVQLQQPGAELVVPGTSVKLSCKASGYTFTNYWMHWVKQRPGQGLEWIGEIDPSDNYANYNQEFQGKATLTVDKSSSTAYMQLSSLTSDDSAVYYCARHDGYFGALDYWGQGTSVTVSS
VL: EIVLTQSPTTMAASPGEKITITCSASSSISSNYLHWYQQKPGFSPKFLIYRTSNLASGVPARFSGSGSGTSYSLTIGTMEAEDVATYYCQQASSIPRMFTFGSGTKLEIK
notes: human-murine chimeric antibody, human IgG1; also called chimeric antibody F3.121.4
Regarding B2, the binding result (with murine CD19 protein; in assay [6]) was “no binding” each time. Also, the OD450 with Human CD19-his protein [1] turned out to be 1.04; in the assay with Human CD19-his protein [2], 0.06; in the assay with Human CD19-his protein [3] it was 0.11; with Human CD19-his protein [5], 0.88; with Human CD19-his protein [7], 0.5; with Human CD19-his protein [8], 0.82. Moreover, in the assay with Human CD19-his protein [9], the OD450 stood at 0.05. Further, the concentration for a half-maximal effect (EC50 (read off the curve)) with Human CD19-his protein [4] was approximately 0.1 nM.

B3: F5.8.6 (antibody, human IgG1, V domains shown)
VH: QVQLHQPGAELVMPGASVTLSCKASGYTFTSYWMHWVKQRPGQGLEWIGEIDPSDSYTTYDQKFKGKATLTVDKFSSTAYMQFSSLTSEDSAVYYCARLTGNHLDYWGQGTTLTVSS
VL: DIVMTQSHKFMSSSVGDRVSITCKASQDVSPAVAWYQQKPGQSPKLLIYSTSYRNTGVPDRFTGSGSGTDFTFTISSVQAEDLAVYYCQQHYSIPLTFGAGTKLELK
notes: as for B1
B3: the binding result (with murine CD19 protein; in [6]) was “no binding” each time. In addition, the OD450 with Human CD19-his protein [1] was 0.93; with Human CD19-his protein [2] it was 0.06; with Human CD19-his protein [3], 0.08; with Human CD19-his protein [5], 0.69; with Human CD19-his protein [7] it was 0.22; with Human CD19-his protein [8], 0.96. The molecule also displayed an OD450 with Human CD19-his protein [9] of 0.05. In addition, the concentration for a half-maximal effect (EC50 (read off the curve)) with Human CD19-his protein [4] was approximately 0.4 nM.

B4: F3.64.4 (antibody, human IgG1, V domains shown)
VH: EVQLQQSGPELVKPGASVKISCKASGYTFTDYHINWVKQSHGKSPEWIGDINPNNGGTTYNQKFKDKATLTVDKSSSTAFMELRSLTSEDSAVYYCARFITTVVAWYFDVWGTGTTVTVSS
VL: DIQMTQSPASLSVSVGETVTITCRASENIYSNLAWYQQKQGKSPQLLVYAATNLADGVPSRFSGSGSGTQYSLKINSLQSEDFGNYYCQRFWDTPRTFGGGTKLEIK
notes: as for B1
Take B4: the binding result (with murine CD19 protein; in assay [6]) was “no binding” throughout. The OD450 in the assay with Human CD19-his protein [1] worked out at 1; in the assay with Human CD19-his protein [2], 0.06; with Human CD19-his protein [3] it was 0.13; with Human CD19-his protein [5], 1.06; with Human CD19-his protein [7] it was 0.55; with Human CD19-his protein [8], 0.83. This molecule also registered an OD450 with Human CD19-his protein [9] of 0.05. The “EC50 (read off the curve)” value with Human CD19-his protein [4] is approximately 0.1 nM.

B5: F4.272.13 (antibody, human IgG1, V domains shown)
VH: QVQLKESGPGLVAPSQSLSITCTVSGFSLTDYGVSWIRQPPGKGLEWLGVIWGSETTFYNSALKSRLSISKDNSKSQLFLQMNSLQADDTAIYYCAKHHYYGGSFSMDYWGQGTSVTVSS
VL: DIQMTQTTSSLSASLGDRVTISCRASQDINNYLNWYQQKPDGTVKFLIYYTSRLHSGVPSRFSGSGSGTDYSLTISDLEQEDIATYFCQQGNTLPYTFGGGTKLEIK
notes: as for B1
For the molecule B5, the binding result (with murine CD19 protein; in assay [6]) was “no binding” each time. The OD450 with Human CD19-his protein [1] was found to be 2.14; with Human CD19-his protein [2], 0.09; in the assay with Human CD19-his protein [3], 0.33; in the assay with Human CD19-his protein [5] it was 2.14; in the assay with Human CD19-his protein [7], 1.56; in the assay with Human CD19-his protein [8], 2.25. The OD450 with Human CD19-his protein [9] was 0.06. The “EC50 (read off the curve)” value with Human CD19-his protein [4] was approximately 0.04 nM.

B6: F4.18.13 (antibody, human IgG1, V domains shown)
VH: QVQLQQSGPELVKPGASVKISCKASGYAFSSFWMNWVKQRPGEGLEWIGRIYPGDGDTNYNGKFKGKATLTADDSSSTAYMQLSSLTSVDSAVYFCAREVIAAVVTTDFDYWGQGTTLTVSS
VL: DIQMTQTTSSLSASLGDRVTISCRTSQDISNYLNWYLQKPDGTVKLLIYYTSGLHSGVPSRFSGSGSGTDYSLTISNLEPEDIATYFCQQGKTLPYTFGGGTKLEIK
notes: as for B1
Consider B6, for which the binding result (with murine CD19 protein; in assay [6]) was “no binding” throughout. The OD450 in the assay with Human CD19-his protein [1] was 1.96; in the assay with Human CD19-his protein [2], 0.08; with Human CD19-his protein [3], 0.25; with Human CD19-his protein [5] it was 2.01; with Human CD19-his protein [7], 1.32; with Human CD19-his protein [8], 1.69. The same molecule came in with an OD450 with Human CD19-his protein [9] of 0.05. In the assay with Human CD19-his protein [4], the concentration for a half-maximal effect (EC50 (read off the curve)) is approximately 0.05 nM.

B7: F2.15.26 (antibody, human IgG1, V domains shown)
VH: QVQLKESGPGLVAPSQSLSITCTVSGFSLTDYGVSWIRQSPGKGLEWLGVIWGSGDTYYNSVLESRLSINKDNSKNQVFLKMNSLQTDDAAMYFCAKHSYYGGSFAMDYWGQGTSVTVSS
VL: DIQMTQTTSSLSASLGDRVTISCRASQDISNYLNWYQQKPDGTVKLLIYYTSRLHSGVPSRFSGSGSGTDYSLTISNLEQEDIATYFCQQGKTLPWTFGGGTKLEIK
notes: as for B1
For the molecule B7, the binding result (in the assay with murine CD19 protein; in assay [6]) was “no binding” throughout. In addition, the OD450 with Human CD19-his protein [1] stood at 1.4; in the assay with Human CD19-his protein [2], 0.07; with Human CD19-his protein [3] it was 0.18; with Human CD19-his protein [5] it was 1.3; with Human CD19-his protein [7], 0.8; with Human CD19-his protein [8] it was 1.54. Moreover, the OD450 with Human CD19-his protein [9] was determined as 0.05. Besides, in the assay with Human CD19-his protein [4], the “EC50 (read off the curve)” value is approximately 0.09 nM.

B8: F5.10.6 (antibody, human IgG1, V domains shown)
VH: DVQLQESGPGLVKPSQSLSLTCSVTDYSITSGYYWTWIRQFPGNKLEWMGYISYDGSTNYNPSLKNRFSITRDTSKNQFFLKLNSVIIEDTATYYCARDRMSTTWYFDVWGTGTTVTVSS
VL: DIVLTQSPASLAVSLGQRATISCRASESVDNYGISFMHWYQQKPGQPPKLLIYRASKTESGIPARFSGSGSRTDFTLTINPVETDDVATYYCQQSNKYPRTFGGGTKVEIK
notes: as for B1
Take B8: the binding result (in the assay with murine CD19 protein; in assay [6]) was “no binding” each time. Besides, the OD450 was 1.76 with Human CD19-his protein [1]; 0.07 with Human CD19-his protein [2]; 0.15 in the assay with Human CD19-his protein [3]; 1.48 in the assay with Human CD19-his protein [5]; 0.68 with Human CD19-his protein [7]; 1.52 with Human CD19-his protein [8]. Moreover, the OD450 with Human CD19-his protein [9] came out at 0.05. Also, the “EC50 (read off the curve)” value with Human CD19-his protein [4] was approximately 0.2 nM.

B9: F1-mab003 (antibody, human IgG1, V domains shown)
VH: EVQLQQSGPELVKPGASVKMSCKASGYTFTDYVMHWVRQTPGQGLEWIGYFNPYNDGTNYNEKFKVKATLTSDKSSTTAYMELSSLTSEDSAVYYCARGVYYYGRDFDYWGQGTTLTVSS
VL: DVVLTQTPLSLPVSLGDQASISCRSSQSLENSNGNSYLNWYLQKPGQSPQLLIYRVSNRFSGVLDRFSGSGSGTDFTLKISRVEAEDLGVYFCLQITHVPWTFGGGTKLEIK
notes: as for B1
As to B9, the binding result (with murine CD19 protein; in assay [6]) was “no binding” each time. Besides, the OD450 turned out to be 1.72 with Human CD19-his protein [1]; 0.08 with Human CD19-his protein [2]; 0.28 with Human CD19-his protein [3]; 1.58 in the assay with Human CD19-his protein [5]; 1.09 with Human CD19-his protein [7]; 1.98 with Human CD19-his protein [8]. Moreover, the OD450 with Human CD19-his protein [9] came to 0.06. Also, in the assay with Human CD19-his protein [4], the concentration for a half-maximal effect (EC50 (read off the curve)) is approximately 0.07 nM.
